Measured values taken from patent US20170355730A1 (ENTRADA THERAPEUTICS, published 2017).
Starred links: 1 amine or outer side, 2 acyl side, 3 side chain; linkers in the order of their positions; H or OH if unused. Non-standard residues stand in square brackets, D forms with d. Primed or numbered codes have the meaning given here. No end group written: not given here. *: point of attachment. FITC = O=C1OC2(c3ccc(O)cc3Oc3cc(O)ccc32)c2ccc(NC(=S)*)cc21; Trimesoyl = O=C(c1cc(C(=O)[*:2])cc(C(=O)[*:3])c1)[*:1]; F2Pmp = N[C@@H](Cc1ccc(C(F)(F)P(=O)(O)O)cc1)C(=O)O; Phe(4-F) = N[C@@H](Cc1ccc(F)cc1)C(=O)O; dPhe(4-F) = N[C@H](Cc1ccc(F)cc1)C(=O)O; 2Nal = N[C@@H](Cc1ccc2ccccc2c1)C(=O)O; Pip′ = L-homoproline (pipecolyl); AMC = Cc1cc(=O)oc2cc(N*)ccc12; Phg = N[C@H](C(=O)O)c1ccccc1; Nle = CCCC[C@H](N)C(=O)O; Abu = CC[C@H](N)C(=O)O; Dap = NC[C@H](N)C(=O)O; Butyryl = CCCC(=O)*

Key:
Pin4 = Pin4 (human, UniProt Q9Y237 1-131, limits assumed); assay: cell-based or functional assay
Chain of Pin4 (Q9Y237 whole entry): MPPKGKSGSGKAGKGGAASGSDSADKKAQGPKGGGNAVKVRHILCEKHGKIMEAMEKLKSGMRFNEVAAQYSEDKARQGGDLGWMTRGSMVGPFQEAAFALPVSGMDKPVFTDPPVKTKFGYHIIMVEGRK

[1] = molecular target: T1, Caspase-3, Human, recombinant protein (human, UniProt P42574 29-277, limits assumed); assay: cell-based or functional assay
T1 sequence (looked up): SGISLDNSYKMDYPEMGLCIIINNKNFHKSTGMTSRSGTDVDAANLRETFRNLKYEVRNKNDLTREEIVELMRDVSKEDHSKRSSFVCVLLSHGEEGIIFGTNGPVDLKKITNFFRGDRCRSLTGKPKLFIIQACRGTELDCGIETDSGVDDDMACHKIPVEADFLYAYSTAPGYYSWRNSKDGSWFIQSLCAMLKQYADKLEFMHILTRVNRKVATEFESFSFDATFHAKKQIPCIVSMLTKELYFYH

[2] = molecular target: T1, Caspase-3, Human, recombinant protein; assay: cell-based or functional assay; remark: listed apart in the source
[3] = molecular target: T2, ybbR-tagged PTP1B catalytic domain (amino acids 1-321) (UniProt P18031 1-321, Texas Red attached through CoA/Sfp to the ybbR tag (library screening only)); assay: cell-based or functional assay
T2 sequence: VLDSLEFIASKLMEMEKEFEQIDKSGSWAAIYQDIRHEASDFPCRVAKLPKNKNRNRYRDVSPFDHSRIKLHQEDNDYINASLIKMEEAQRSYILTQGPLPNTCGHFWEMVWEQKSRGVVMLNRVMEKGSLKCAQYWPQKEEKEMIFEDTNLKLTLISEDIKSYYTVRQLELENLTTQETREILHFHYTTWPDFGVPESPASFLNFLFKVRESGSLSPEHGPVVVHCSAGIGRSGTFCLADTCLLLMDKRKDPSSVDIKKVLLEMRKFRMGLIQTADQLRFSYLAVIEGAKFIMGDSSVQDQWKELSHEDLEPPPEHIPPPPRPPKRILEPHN

CAL-PDZ domain = CAL-PDZ domain (UniProt Q9HD26 286-370); assay: fluorescence anisotropy, FITC-labeled peptide, in the presence of 2 mM tris(carboxylethyl)phosphine
[4] = molecular target: T2, ybbR-tagged PTP1B catalytic domain …; assay: PTP1B-catalyzed pNPP hydrolysis, competitive inhibition (Lineweaver-Burk and secondary plot)

B1: peptide 37 (Table 18) (peptide)
peptide: Trimesoyl-[dPhe(4-F)][Phe(4-F)][dT][Pip′][2Nal]RA[dF][Dap]F[2Nal]RRRR[Dap]K
modifications: linker (positions not given here) via Trimesoyl; not fully specified (bridges); printed as bicyclo[Tm-(D-4-Fpa-Fpa-D-Thr-Pip-Nal-Arg-Ala-D-Phe)-Dap-(Phe-Nal-Arg-Arg-Arg-Arg-Dap)]-Lys
- IC50 of Pin4 isomerase activity (Pin4): ~34000 nM

Binder: Butyryl-RRRR[2Nal]FD[Nle][Abu]D-{AMC} [peptide 6 (Table 10, linear control)]
- ΔFU/min [1]: 74.7 ΔFU/min
- decrease of activity relative to peptide 3 [2]: 53%

B2: peptide 3 (Table 10, caspase 3/7 substrate) (peptide)
peptide: Ac-D[Nle][Abu]D-{AMC}
SMILES: CCCC[C@H](NC(=O)[C@H](CC(=O)O)NC(C)=O)C(=O)N[C@@H](CC)C(=O)N[C@@H](CC(=O)O)C(=O)Nc1ccc2c(C)cc(=O)oc2c1
- ΔFU/min [1]: 159 ΔFU/min

B3: Monocyclic Inhibitor 1 (peptide)
peptide: cyclo([dT][dN][dV][F2Pmp][dA]RRRR[2Nal]FQ)
SMILES: CC(C)[C@H]1NC(=O)[C@@H](CC(N)=O)NC(=O)[C@@H]([C@H](C)O)NC(=O)[C@H](CCC(N)=O)NC(=O)[C@H](Cc2ccccc2)NC(=O)[C@H](Cc2ccc3ccccc3c2)NC(=O)[C@H](CCCNC(=N)N)NC(=O)[C@H](CCCNC(=N)N)NC(=O)[C@H](CCCNC(=N)N)NC(=O)[C@H](CCCNC(=N)N)NC(=O)[C@@H](C)NC(=O)[C@H](Cc2ccc(C(F)(F)P(=O)(O)O)cc2)NC1=O
- IC50 (inhibition of pNPP hydrolysis) [3]: ~100 nM

B4: peptide 8 (Table 10, CAL-PDZ inhibitor), reduced linear form (peptide)
peptide: {FITC}-CRRRRFWQCTRV
modifications: also: disulfide reduced by TCEP (free thiols)
notes: As assayed in the presence of 2 mM tris(carboxylethyl)phosphine
- Kd (CAL-PDZ domain): 489 nM

Binder: cyclo(S[dV]P[F2Pmp]HRRRR[2Nal]FQ) [Monocyclic Inhibitor 2]
- IC50 (inhibition of pNPP hydrolysis) [3]: ~30 nM
- Ki [4]: 54 nM

Binder: cyclo(IP[Phg][F2Pmp][Nle]RRRR[2Nal]FQ) [Monocyclic Inhibitor 3]
- IC50 (inhibition of pNPP hydrolysis) [3]: ~200 nM

B5: peptide 7 (Table 10, R9 conjugate) (peptide)
peptide: Ac-RRRRRRRRRD[Nle][Abu]D-{AMC}
SMILES: CCCC[C@H](NC(=O)[C@H](CC(=O)O)NC(=O)[C@H](CCCNC(=N)N)NC(=O)[C@H](CCCNC(=N)N)NC(=O)[C@H](CCCNC(=N)N)NC(=O)[C@H](CCCNC(=N)N)NC(=O)[C@H](CCCNC(=N)N)NC(=O)[C@H](CCCNC(=N)N)NC(=O)[C@H](CCCNC(=N)N)NC(=O)[C@H](CCCNC(=N)N)NC(=O)[C@H](CCCNC(=N)N)NC(C)=O)C(=O)N[C@@H](CC)C(=O)N[C@@H](CC(=O)O)C(=O)Nc1ccc2c(C)cc(=O)oc2c1
- ΔFU/min [1]: 45.3 ΔFU/min
- decrease of activity relative to peptide 3 [2]: 72%
